Measured values published in the supplement of paper PMC10065799, “High-throughput profiling of sequence recognition by tyrosine kinases and SH2 domains using bacterial peptide display” (eLife, 2023).

These sequences were tested against EPHB1 (UniProt P54762) (assay: phosphorylation enrichment, bacterial display (enrichment ratio); higher = better substrate or ligand; peptides without Tyr show the background).
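Note: 11-residue human phosphosite peptides and single-mutation variants displayed on the E. coli surface, counted by deep sequencing, each peptide's frequency after selection divided by its frequency in the unselected input library; frequency after pTyr selection over input frequency; kinase dosed for 20-30% of maximal phosphorylation in three min.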

EPHB1, sequence (P54762 whole entry, looked up): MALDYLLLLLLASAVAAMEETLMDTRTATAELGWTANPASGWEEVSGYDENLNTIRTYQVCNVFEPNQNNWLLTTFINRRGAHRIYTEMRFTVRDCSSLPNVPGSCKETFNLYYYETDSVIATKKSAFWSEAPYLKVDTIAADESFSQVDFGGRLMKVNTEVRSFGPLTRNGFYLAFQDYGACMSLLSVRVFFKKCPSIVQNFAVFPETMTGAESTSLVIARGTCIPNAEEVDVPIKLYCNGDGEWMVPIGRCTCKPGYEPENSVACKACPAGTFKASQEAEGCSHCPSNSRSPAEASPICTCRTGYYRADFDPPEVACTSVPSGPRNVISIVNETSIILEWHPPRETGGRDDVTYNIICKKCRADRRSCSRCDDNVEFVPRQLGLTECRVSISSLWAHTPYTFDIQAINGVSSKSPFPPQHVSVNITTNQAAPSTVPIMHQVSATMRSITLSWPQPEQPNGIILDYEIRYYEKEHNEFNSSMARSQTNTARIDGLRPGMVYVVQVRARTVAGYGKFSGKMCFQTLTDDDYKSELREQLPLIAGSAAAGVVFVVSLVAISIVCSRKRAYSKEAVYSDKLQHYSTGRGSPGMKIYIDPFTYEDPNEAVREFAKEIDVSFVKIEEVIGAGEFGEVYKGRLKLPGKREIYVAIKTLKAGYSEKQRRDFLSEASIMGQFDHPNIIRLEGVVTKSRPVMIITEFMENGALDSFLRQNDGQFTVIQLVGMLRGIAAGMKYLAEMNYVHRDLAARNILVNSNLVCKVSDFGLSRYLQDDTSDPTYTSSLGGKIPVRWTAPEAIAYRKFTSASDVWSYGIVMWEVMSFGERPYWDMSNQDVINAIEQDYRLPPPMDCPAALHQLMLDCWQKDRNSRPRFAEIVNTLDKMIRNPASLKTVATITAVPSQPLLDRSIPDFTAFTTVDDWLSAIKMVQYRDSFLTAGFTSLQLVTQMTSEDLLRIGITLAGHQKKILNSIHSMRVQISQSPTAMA

Sequence | phosphorylation enrichment
EQKKFYNATKK [SCN5A_Y1495_M1498T_YF] | 0.383
RLRKFHLGKFL [KLB_Y906_Y906H_YF] | 1.17
STEAIYRRFSK [SH3PXD2B_Y42_YF] | 0.334
CEETFYTMKVN [MASP2_Y401] | 0.766
NTGYYYDLYGG [PTPN11_Y63_D61Y] | 11.3
RLSELYLRRNR [CFAP410_Y68] | 0.94
KLQKFYRKNPD [EHHADH_Y683_Q685K_YF] | 0.348
KLLLKYSFHDA [RNF213_Y4141_V4146A] | 0.616
YQKDVYDIPPS [NEDD9_Y177] | 0.788
ERNARYRTPKI [PTK2B_Y699] | 0.314
DSASAYADEVK [ETNPPL_Y189] | 0.536
VNNLVYENING [FRS2_Y306_K303N] | 11.8
PVFQVYPLLNC [GATA1_Y78] | 0.775
LFHENYNAGTY [CFI_Y421_I416L] | 0.521
CQAHGYFCQLI [STK11_Y156] | 0.413
FSPGSNERETF [NF1_Y2192_Y2192N] | 0.408

Sequence | phosphorylation enrichment
EHTTLYSNNST [KANSL1_Y223] | 0.387
SVVVPYAPPEV [TP53_Y220_E221A] | 0.508
GFPVHYTDMSN [DNMT3B_Y815_V818M] | 0.388
PIGRKYKKVRF [F8_Y442_R437P] | 0.557
VRHRRYKHTHE [CTCF_Y343] | 0.55
FVTCTYSPALN [TP53_Y126_S121F] | 0.603
RYMELYDLNRD [BBS2_Y648] | 1.52
FPDFVYKCIKA [DPYSL2_Y479_R481C] | 0.691
SWDKRYCEAGF [ITGA2B_Y197] | 0.867
NELTFYCCKKD [CD59_Y87_YF] | 0.514
KNKNRYKNVLP [PTPN11_Y279_I282V] | 0.426
FVSAAYVKKLD [SPTAN1_Y1020_P1017S] | 0.414
PLDGEYLTLQI [TP53_Y327_F328L] | 1.46
FVSIVYNDFGE [TSC2_Y1650_S1653F] | 0.605
KEAALYPHLLP [SQSTM1_Y383_P387L] | 0.427
GREEFYVHFVG [KAT8_Y90_YF] | 0.661

The sequences below were run against FGFR1 (UniProt P11362) in the same assay as above.
FGFR1, sequence (P11362 whole entry, looked up): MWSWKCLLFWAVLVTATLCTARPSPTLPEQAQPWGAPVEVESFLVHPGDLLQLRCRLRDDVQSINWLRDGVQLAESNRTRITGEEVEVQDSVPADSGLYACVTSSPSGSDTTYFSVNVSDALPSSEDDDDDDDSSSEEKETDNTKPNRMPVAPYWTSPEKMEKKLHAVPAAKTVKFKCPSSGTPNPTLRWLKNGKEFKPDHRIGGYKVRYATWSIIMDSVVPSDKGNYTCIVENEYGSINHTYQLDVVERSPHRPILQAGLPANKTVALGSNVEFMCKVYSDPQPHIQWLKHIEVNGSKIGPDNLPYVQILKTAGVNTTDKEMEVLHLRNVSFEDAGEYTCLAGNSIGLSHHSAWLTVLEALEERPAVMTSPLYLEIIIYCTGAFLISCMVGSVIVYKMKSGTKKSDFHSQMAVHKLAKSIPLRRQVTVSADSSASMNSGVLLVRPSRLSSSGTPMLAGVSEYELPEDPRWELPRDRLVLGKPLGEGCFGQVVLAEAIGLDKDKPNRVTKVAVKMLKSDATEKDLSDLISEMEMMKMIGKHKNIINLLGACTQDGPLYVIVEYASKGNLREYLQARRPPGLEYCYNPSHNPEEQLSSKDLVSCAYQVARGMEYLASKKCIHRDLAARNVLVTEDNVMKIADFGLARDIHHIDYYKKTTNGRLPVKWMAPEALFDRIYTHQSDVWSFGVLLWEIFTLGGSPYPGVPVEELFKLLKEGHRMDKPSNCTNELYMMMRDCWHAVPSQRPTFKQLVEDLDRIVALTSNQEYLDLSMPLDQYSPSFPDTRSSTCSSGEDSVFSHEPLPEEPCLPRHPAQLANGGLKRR

Sequence | phosphorylation enrichment
AEMTGYVVTRW [MAPK13_Y182] | 0.526
EQKKFYNATKK [SCN5A_Y1495_M1498T_YF] | 0.412
RLRKFHLGKFL [KLB_Y906_Y906H_YF] | 0.417
STEAIYRRFSK [SH3PXD2B_Y42_YF] | 0.493
CEETFYTMKVN [MASP2_Y401] | 0.546
NTGYYYDLYGG [PTPN11_Y63_D61Y] | 13.9
RLSELYLRRNR [CFAP410_Y68] | 0.703
KLQKFYRKNPD [EHHADH_Y683_Q685K_YF] | 0.401
KLLLKYSFHDA [RNF213_Y4141_V4146A] | 0.484
YQKDVYDIPPS [NEDD9_Y177] | 0.528
ERNARYRTPKI [PTK2B_Y699] | 0.316
DSASAYADEVK [ETNPPL_Y189] | 0.655
VNNLVYENING [FRS2_Y306_K303N] | 0.57
PVFQVYPLLNC [GATA1_Y78] | 1.27
LFHENYNAGTY [CFI_Y421_I416L] | 0.78
CQAHGYFCQLI [STK11_Y156] | 0.479
FSPGSNERETF [NF1_Y2192_Y2192N] | 0.53

Sequence | phosphorylation enrichment
EHTTLYSNNST [KANSL1_Y223] | 0.356
SVVVPYAPPEV [TP53_Y220_E221A] | 0.589
GFPVHYTDMSN [DNMT3B_Y815_V818M] | 0.546
PIGRKYKKVRF [F8_Y442_R437P] | 0.577
VRHRRYKHTHE [CTCF_Y343] | 0.743
FVTCTYSPALN [TP53_Y126_S121F] | 0.464
RYMELYDLNRD [BBS2_Y648] | 1.04
FPDFVYKCIKA [DPYSL2_Y479_R481C] | 0.616
SWDKRYCEAGF [ITGA2B_Y197] | 0.506
NELTFYCCKKD [CD59_Y87_YF] | 0.54
KNKNRYKNVLP [PTPN11_Y279_I282V] | 0.419
FVSAAYVKKLD [SPTAN1_Y1020_P1017S] | 0.421
PLDGEYLTLQI [TP53_Y327_F328L] | 1.64
FVSIVYNDFGE [TSC2_Y1650_S1653F] | 0.561
KEAALYPHLLP [SQSTM1_Y383_P387L] | 0.512
GREEFYVHFVG [KAT8_Y90_YF] | 0.582

These sequences were tested against MERTK (UniProt Q12866) in the same assay as above.
MERTK, sequence (Q12866 whole entry, looked up): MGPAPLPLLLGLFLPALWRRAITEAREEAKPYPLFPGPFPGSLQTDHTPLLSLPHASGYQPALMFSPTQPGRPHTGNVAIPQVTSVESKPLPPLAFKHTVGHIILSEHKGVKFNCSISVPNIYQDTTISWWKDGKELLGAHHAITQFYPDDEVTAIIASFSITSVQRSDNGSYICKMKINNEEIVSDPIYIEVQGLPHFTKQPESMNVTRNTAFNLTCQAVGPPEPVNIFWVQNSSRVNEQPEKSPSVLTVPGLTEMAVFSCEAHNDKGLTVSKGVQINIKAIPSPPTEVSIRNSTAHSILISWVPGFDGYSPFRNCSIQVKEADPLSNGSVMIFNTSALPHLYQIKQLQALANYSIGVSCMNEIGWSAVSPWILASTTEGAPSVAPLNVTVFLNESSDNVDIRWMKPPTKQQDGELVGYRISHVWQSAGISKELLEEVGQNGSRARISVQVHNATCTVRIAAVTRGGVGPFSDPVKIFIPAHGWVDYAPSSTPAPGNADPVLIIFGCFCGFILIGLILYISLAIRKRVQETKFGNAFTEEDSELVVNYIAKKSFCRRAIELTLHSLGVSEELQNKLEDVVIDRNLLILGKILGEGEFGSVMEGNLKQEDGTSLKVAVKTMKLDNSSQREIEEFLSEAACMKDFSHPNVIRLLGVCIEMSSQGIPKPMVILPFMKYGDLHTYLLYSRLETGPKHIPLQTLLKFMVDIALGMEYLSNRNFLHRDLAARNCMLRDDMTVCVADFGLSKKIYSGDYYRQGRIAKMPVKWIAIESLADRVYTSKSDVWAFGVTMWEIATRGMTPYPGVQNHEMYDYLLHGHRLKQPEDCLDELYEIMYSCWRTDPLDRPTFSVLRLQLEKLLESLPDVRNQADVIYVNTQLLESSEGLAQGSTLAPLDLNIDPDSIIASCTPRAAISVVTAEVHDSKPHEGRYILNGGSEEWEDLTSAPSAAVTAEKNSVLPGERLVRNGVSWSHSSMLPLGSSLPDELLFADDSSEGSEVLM

Sequence | phosphorylation enrichment
AEMTGYVVTRW [MAPK13_Y182] | 0.372
EQKKFYNATKK [SCN5A_Y1495_M1498T_YF] | 0.404
RLRKFHLGKFL [KLB_Y906_Y906H_YF] | 0.969
STEAIYRRFSK [SH3PXD2B_Y42_YF] | 0.372
CEETFYTMKVN [MASP2_Y401] | 0.529
NTGYYYDLYGG [PTPN11_Y63_D61Y] | 8.78
RLSELYLRRNR [CFAP410_Y68] | 1.04
KLQKFYRKNPD [EHHADH_Y683_Q685K_YF] | 0.449
KLLLKYSFHDA [RNF213_Y4141_V4146A] | 0.39
YQKDVYDIPPS [NEDD9_Y177] | 7.34
ERNARYRTPKI [PTK2B_Y699] | 0.697
DSASAYADEVK [ETNPPL_Y189] | 0.601
VNNLVYENING [FRS2_Y306_K303N] | 5.31
PVFQVYPLLNC [GATA1_Y78] | 0.927
LFHENYNAGTY [CFI_Y421_I416L] | 0.537
CQAHGYFCQLI [STK11_Y156] | 0.407
FSPGSNERETF [NF1_Y2192_Y2192N] | 0.414

Sequence | phosphorylation enrichment
EHTTLYSNNST [KANSL1_Y223] | 0.386
SVVVPYAPPEV [TP53_Y220_E221A] | 0.423
GFPVHYTDMSN [DNMT3B_Y815_V818M] | 0.545
PIGRKYKKVRF [F8_Y442_R437P] | 0.498
VRHRRYKHTHE [CTCF_Y343] | 0.684
FVTCTYSPALN [TP53_Y126_S121F] | 0.346
RYMELYDLNRD [BBS2_Y648] | 1.32
FPDFVYKCIKA [DPYSL2_Y479_R481C] | 0.446
SWDKRYCEAGF [ITGA2B_Y197] | 0.455
NELTFYCCKKD [CD59_Y87_YF] | 0.466
KNKNRYKNVLP [PTPN11_Y279_I282V] | 0.473
FVSAAYVKKLD [SPTAN1_Y1020_P1017S] | 0.337
PLDGEYLTLQI [TP53_Y327_F328L] | 0.764
FVSIVYNDFGE [TSC2_Y1650_S1653F] | 0.422
KEAALYPHLLP [SQSTM1_Y383_P387L] | 0.432
GREEFYVHFVG [KAT8_Y90_YF] | 0.559

These sequences were tested against Jak2 (UniProt O60674) in the same assay as above.
Jak2, sequence (O60674 whole entry, looked up): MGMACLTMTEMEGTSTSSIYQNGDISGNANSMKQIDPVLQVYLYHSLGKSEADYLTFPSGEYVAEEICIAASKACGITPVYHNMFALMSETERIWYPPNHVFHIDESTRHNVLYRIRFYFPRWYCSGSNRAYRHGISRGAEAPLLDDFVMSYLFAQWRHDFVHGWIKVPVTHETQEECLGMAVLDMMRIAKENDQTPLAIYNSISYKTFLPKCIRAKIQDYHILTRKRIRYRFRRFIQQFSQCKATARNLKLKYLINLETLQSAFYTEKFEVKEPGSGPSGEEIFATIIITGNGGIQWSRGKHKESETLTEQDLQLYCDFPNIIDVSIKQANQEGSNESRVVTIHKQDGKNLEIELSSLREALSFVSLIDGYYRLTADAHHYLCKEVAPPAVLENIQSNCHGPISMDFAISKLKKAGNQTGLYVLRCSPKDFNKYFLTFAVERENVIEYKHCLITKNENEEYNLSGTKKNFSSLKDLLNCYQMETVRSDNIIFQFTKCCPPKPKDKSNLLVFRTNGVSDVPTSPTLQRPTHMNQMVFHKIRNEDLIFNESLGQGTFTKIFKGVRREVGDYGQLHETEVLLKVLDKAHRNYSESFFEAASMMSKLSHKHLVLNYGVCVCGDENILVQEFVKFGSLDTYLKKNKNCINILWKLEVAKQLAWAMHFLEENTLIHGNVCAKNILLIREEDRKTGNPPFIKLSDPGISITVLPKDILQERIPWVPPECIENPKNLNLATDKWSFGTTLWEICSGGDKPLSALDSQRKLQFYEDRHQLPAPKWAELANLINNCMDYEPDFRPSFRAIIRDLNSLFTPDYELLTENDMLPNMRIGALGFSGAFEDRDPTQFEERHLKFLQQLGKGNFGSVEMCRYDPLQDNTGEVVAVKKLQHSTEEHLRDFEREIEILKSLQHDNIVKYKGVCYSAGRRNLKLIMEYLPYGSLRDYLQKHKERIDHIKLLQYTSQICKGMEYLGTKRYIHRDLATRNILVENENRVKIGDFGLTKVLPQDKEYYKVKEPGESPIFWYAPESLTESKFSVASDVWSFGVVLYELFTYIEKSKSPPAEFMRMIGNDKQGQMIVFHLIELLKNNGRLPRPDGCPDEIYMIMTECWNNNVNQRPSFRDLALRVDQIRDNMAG

Sequence | phosphorylation enrichment
AEMTGYVVTRW [MAPK13_Y182] | 1.34
EQKKFYNATKK [SCN5A_Y1495_M1498T_YF] | 0.436
RLRKFHLGKFL [KLB_Y906_Y906H_YF] | 0.698
STEAIYRRFSK [SH3PXD2B_Y42_YF] | 0.353
CEETFYTMKVN [MASP2_Y401] | 1.51
NTGYYYDLYGG [PTPN11_Y63_D61Y] | 4.73
RLSELYLRRNR [CFAP410_Y68] | 0.934
KLQKFYRKNPD [EHHADH_Y683_Q685K_YF] | 0.469
KLLLKYSFHDA [RNF213_Y4141_V4146A] | 0.993
YQKDVYDIPPS [NEDD9_Y177] | 0.614
ERNARYRTPKI [PTK2B_Y699] | 0.409
DSASAYADEVK [ETNPPL_Y189] | 1.15
VNNLVYENING [FRS2_Y306_K303N] | 0.571
PVFQVYPLLNC [GATA1_Y78] | 1.72
LFHENYNAGTY [CFI_Y421_I416L] | 0.976
CQAHGYFCQLI [STK11_Y156] | 0.751
FSPGSNERETF [NF1_Y2192_Y2192N] | 0.849

Sequence | phosphorylation enrichment
EHTTLYSNNST [KANSL1_Y223] | 0.575
SVVVPYAPPEV [TP53_Y220_E221A] | 0.719
GFPVHYTDMSN [DNMT3B_Y815_V818M] | 0.667
PIGRKYKKVRF [F8_Y442_R437P] | 0.545
VRHRRYKHTHE [CTCF_Y343] | 0.643
FVTCTYSPALN [TP53_Y126_S121F] | 1.07
RYMELYDLNRD [BBS2_Y648] | 1.4
FPDFVYKCIKA [DPYSL2_Y479_R481C] | 1.44
SWDKRYCEAGF [ITGA2B_Y197] | 0.888
NELTFYCCKKD [CD59_Y87_YF] | 1.29
KNKNRYKNVLP [PTPN11_Y279_I282V] | 0.767
FVSAAYVKKLD [SPTAN1_Y1020_P1017S] | 0.403
PLDGEYLTLQI [TP53_Y327_F328L] | 2.48
FVSIVYNDFGE [TSC2_Y1650_S1653F] | 0.991
KEAALYPHLLP [SQSTM1_Y383_P387L] | 0.649
GREEFYVHFVG [KAT8_Y90_YF] | 1.37
LSCVIYVILRK [PMP22_Y153_G150C] | 1.83

Each sequence was assayed on c-Abl (mouse) in the same assay as above.

Sequence | phosphorylation enrichment
AEMTGYVVTRW [MAPK13_Y182] | 0.895
EQKKFYNATKK [SCN5A_Y1495_M1498T_YF] | 0.497
